The target in this assay is human FGFR1c + KLB receptor complex on HEK293 iLite FGF21 reporter cells (human, UniProt P11362 22-822; Q86Z14 1-1044). As to the kind of experiment: cell-based or functional assay.

The text below walks through data of patent publication US20220010021A1 (Sanofi, published 2022).

As usually defined, the EC50 is the concentration at which the effect is half-maximal. As a reminder, the Emax is the greatest response seen or fitted, relative to the assay's reference.

Chain of human FGFR1c + KLB receptor complex on HEK293 iLite FGF21 reporter cells (P11362 22-822, chain 1 of 2): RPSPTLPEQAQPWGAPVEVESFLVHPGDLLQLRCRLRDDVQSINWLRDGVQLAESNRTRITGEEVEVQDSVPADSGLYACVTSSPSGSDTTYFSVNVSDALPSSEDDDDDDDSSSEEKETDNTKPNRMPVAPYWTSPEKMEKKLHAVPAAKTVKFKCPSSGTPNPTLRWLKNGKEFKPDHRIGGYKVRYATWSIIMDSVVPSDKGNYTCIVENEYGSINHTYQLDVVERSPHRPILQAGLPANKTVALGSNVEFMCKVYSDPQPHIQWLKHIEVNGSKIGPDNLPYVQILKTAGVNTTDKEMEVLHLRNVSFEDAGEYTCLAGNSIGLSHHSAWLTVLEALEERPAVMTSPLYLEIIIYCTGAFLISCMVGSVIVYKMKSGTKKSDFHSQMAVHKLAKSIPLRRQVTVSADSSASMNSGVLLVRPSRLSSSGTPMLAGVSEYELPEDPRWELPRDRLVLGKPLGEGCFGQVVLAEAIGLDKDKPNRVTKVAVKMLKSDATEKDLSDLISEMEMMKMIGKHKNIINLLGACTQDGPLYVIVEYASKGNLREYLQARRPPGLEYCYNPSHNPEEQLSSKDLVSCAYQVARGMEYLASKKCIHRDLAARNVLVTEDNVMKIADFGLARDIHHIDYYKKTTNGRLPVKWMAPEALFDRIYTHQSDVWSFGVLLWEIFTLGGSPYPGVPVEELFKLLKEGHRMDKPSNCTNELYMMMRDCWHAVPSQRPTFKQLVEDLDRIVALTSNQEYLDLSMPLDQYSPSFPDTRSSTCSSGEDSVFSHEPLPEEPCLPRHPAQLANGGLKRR
Chain of human FGFR1c + KLB receptor complex on HEK293 iLite FGF21 reporter cells (Q86Z14 whole entry, chain 2 of 2): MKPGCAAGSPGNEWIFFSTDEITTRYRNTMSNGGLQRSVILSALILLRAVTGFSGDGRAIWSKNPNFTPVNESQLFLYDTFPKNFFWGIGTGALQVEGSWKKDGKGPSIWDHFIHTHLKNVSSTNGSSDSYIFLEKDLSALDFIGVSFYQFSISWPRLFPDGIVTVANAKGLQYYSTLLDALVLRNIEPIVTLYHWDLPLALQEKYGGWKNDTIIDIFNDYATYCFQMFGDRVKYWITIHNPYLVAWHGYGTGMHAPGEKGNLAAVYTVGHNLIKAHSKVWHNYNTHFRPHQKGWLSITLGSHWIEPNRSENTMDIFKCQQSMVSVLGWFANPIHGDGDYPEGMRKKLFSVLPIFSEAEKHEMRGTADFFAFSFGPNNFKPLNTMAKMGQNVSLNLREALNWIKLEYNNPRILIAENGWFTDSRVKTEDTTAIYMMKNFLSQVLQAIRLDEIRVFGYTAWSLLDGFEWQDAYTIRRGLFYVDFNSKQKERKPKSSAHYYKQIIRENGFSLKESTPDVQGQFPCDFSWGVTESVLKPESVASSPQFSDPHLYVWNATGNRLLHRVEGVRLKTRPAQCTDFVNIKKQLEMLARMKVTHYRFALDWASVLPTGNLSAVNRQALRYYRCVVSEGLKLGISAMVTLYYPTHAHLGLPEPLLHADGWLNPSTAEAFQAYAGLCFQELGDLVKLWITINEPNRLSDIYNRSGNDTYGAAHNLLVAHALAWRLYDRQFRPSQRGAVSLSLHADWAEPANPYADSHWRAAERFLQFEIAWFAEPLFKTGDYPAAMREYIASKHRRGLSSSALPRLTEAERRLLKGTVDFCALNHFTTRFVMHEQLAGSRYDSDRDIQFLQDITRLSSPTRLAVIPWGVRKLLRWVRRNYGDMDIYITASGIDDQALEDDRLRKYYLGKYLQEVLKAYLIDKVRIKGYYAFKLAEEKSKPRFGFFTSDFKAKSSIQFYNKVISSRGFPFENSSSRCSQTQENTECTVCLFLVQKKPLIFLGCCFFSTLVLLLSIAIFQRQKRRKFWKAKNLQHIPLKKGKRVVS

B1: Ab0428 (antibody, human IgG1, lambda)
heavy: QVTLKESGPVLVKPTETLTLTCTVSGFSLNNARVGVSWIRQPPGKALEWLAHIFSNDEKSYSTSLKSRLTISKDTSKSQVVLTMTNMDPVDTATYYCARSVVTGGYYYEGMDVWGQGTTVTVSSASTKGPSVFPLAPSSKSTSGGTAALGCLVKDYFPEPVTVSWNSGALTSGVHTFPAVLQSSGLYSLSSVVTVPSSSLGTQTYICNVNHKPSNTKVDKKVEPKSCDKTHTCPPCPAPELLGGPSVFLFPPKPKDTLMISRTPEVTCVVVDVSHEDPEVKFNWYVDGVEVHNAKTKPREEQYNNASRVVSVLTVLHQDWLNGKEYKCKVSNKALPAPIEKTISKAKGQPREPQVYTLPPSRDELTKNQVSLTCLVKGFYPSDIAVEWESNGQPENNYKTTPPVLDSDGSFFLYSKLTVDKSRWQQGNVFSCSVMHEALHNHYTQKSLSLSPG
light: SYVLTQPPSVSVAPGQTARITCGGSNIGSESVHWYQQKPGQAPVLVVYSESDRPSGIPERFSGSNSGNTATLTISRVEAGDEADYYCQVWEGESDHVVFGGGTKLTVLGQPKANPTVTLFPPSSEELQANKATLVCLISDFYPGAVTVAWKADGSPVKAGVETTKPSKQSNNKYAASSYLSLTPEQWKSHRSYSCQVTHEGSTVEKTVAPTECS
For B1, the EC50 amounted to 0.03 nmol/L and the maximal effect (Emax) is 1280%.

B2: Ab0429 (antibody, human IgG1, lambda)
heavy: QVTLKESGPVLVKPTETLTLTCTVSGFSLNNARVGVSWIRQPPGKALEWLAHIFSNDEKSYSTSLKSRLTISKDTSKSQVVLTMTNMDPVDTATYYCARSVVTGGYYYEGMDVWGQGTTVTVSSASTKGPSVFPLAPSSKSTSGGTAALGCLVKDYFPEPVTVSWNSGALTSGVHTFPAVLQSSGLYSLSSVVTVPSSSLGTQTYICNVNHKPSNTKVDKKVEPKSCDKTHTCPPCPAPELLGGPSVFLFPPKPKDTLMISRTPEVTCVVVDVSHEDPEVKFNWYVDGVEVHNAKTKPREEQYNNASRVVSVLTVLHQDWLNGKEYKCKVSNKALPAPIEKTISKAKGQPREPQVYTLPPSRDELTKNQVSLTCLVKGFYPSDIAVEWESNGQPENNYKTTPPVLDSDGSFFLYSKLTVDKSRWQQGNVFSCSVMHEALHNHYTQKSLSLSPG
light: SYVLTQPPSVSVAPGQTARITCGGSNIGSESVHWYQQKPGQAPVLVVYSASDRPSGIPERFSGSNSGNTATLTISRVEAGDEADYYCQVWEGESDHVVFGGGTKLTVLGQPKANPTVTLFPPSSEELQANKATLVCLISDFYPGAVTVAWKADGSPVKAGVETTKPSKQSNNKYAASSYLSLTPEQWKSHRSYSCQVTHEGSTVEKTVAPTECS
In the case of B2, the EC50 amounted to 0.04 nmol/L and the maximum response (Emax) stood at 1290%.

B3: Ab0430 (antibody, human IgG1, lambda)
heavy: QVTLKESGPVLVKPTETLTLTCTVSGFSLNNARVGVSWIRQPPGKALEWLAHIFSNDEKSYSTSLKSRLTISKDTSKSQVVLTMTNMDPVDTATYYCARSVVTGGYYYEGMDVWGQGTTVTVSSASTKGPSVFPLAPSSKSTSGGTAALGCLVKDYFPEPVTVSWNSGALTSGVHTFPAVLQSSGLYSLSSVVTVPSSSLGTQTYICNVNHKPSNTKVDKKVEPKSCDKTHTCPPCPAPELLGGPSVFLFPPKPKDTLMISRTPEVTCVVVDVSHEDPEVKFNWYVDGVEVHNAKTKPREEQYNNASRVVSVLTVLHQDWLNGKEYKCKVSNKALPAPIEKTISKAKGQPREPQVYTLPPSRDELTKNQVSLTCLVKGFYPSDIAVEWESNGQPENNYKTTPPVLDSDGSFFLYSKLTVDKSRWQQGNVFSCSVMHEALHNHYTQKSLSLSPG
light: SYVLTQPPSVSVAPGQTARITCGGSNIGSESVHWYQQKPGQAPVLVVYEESDRPSGIPERFSGSNSGNTATLTISRVEAGDEADYYCQVWEGESDHVVFGGGTKLTVLGQPKANPTVTLFPPSSEELQANKATLVCLISDFYPGAVTVAWKADGSPVKAGVETTKPSKQSNNKYAASSYLSLTPEQWKSHRSYSCQVTHEGSTVEKTVAPTECS
As to B3, the EC50 came out at 0.03 nmol/L and the maximal effect (Emax) came to 1100%.

B4: Ab0348 (antibody, IgG4, V domains shown)
VH: QVTLKESGPVLVKPTETLTLTCTVSGFSLNNARVGVSWIRQPPGKALEWLAHIFSNDEKSYSTSLKSRLTISKDTSKSQVVLTMTNMDPVDTATYYCARSVVTGGYYYEGMDVWGQGTTVTVSS
VL: SYVLTQPPSVSVAPGQTARITCGGSNIGSESVHWYQQKPGQAPVLVVYEESDRPSGIPERFSGSNSGNTATLTISRVEAGDEADYYCQVWTGESDHVVFGGGTKLTVLG
B4: the concentration for a half-maximal effect (EC50) was 0.53 nmol/L and the maximal effect (Emax) amounted to 641%.

B5: Ab0363 (antibody, IgG4, V domains shown)
VH: QVTLKESGPVLVKPTETLTLTCTVSGFSLNNARVGVSWIRQPPGKALEWLAHIFSNDEKSYSTSLKSRLTISKDTSKSQVVLTMTNMDPVDTATYYCARSVVTGGYYYEGMDVWGQGTTVTVSS
VL: SYVLTQPPSVSVAPGQTARITCGGANIGSESVHWYQQKPGQAPVLVVYSASDRPSGIPERFSGSNSGNTATLTISRVEAGDEADYYCQVWAGASDHVVFGGGTKLTVLG
Turning to B5, the concentration giving a half-maximal response (EC50) stood at 0.48 nmol/L and the Emax stood at 736%.

B6: Ab0460 (antibody, IgG4, V domains shown)
VH: QVTLKESGPVLVKPTETLTLTCTVSGFSLTYARVGVSWIRQPPGKALEWLAHIFSNDEKSYSTSLKSRLTISKDTSKSQVVLTMTNMDPVDTATYYCARSVVTGGYYYEGMDVWGQGTTVTVSS
VL: SYVLTQPPSVSVAPGQTARITCGGSNIGSESVHWYQQKPGQAPVLVVYSASDRPSGIPERFSGSNSGNTATLTISRVEAGDEADYYCQVWEGESDHVVFGGGTKLTVLG
As for B6, the 50% effective concentration (EC50) was 0.05 nmol/L and the maximal effect (Emax) turned out to be 1050%.

B7: Ab0349 (antibody, IgG4, V domains shown)
VH: QVTLKESGPVLVKPTETLTLTCTVSGFSLNNARVGVSWIRQPPGKALEWLAHIFSNDEKSYSTSLKSRLTISKDTSKSQVVLTMTNMDPVDTATYYCARSVVTGGYYYEGMDVWGQGTTVTVSS
VL: SYVLTQPPSVSVAPGQTARITCGGSNIGSESVHWYQQKPGQAPVLVVYEESDRPSGIPERFSGSNSGNTATLTISRVEAGDEADYYCQVWTGSSDHVVFGGGTKLTVLG
In the case of B7, the concentration giving a half-maximal response (EC50) amounted to 10.7 nmol/L and the Emax amounted to 511%.

B8: Ab0365 (antibody, IgG4, V domains shown)
VH: QVTLKESGPVLVKPTETLTLTCTVSGFSLNNARVGVSWIRQPPGKALEWLAHIFSNDEKSYSTSLKSRLTISKDTSKSQVVLTMTNMDPVDTATYYCARSVVTGGYYYEGMDVWGQGTTVTVSS
VL: SYVLTQPPSVSVAPGQTARITCGGANIGSESVHWYQQKPGQAPVLVVYTESDRPSGIPERFSGSNSGNTATLTISRVEAGDEADYYCQVWAGSSDHVVFGGGTKLTVLG
For B8, the EC50 came to 0.85 nmol/L and the Emax turned out to be 583%.

B9: Ab0359 (antibody, IgG4, V domains shown)
VH: QVTLKESGPVLVKPTETLTLTCTVSGFSLNNARVGVSWIRQPPGKALEWLAHIFSNDEKSYSTSLKSRLTISKDTSKSQVVLTMTNMDPVDTATYYCARSVVTGGYYYEGMDVWGQGTTVTVSS
VL: SYVLTQPPSVSVAPGQTARITCGGSNIGSESVHWYQQKPGQAPVLVVYEHSDRPSGIPERFSGSNSGNTATLTISRVEAGDEADYYCQVWAGSSDHVVFGGGTKLTVLG
Turning to B9, the concentration for a half-maximal effect (EC50) turned out to be 2.53 nmol/L and the maximal effect (Emax) came to 550%.

B10: Ab0356 (antibody, IgG4, V domains shown)
VH: QVTLKESGPVLVKPTETLTLTCTVSGFSLNNARVGVSWIRQPPGKALEWLAHIFSNDEKSYSTSLKSRLTISKDTSKSQVVLTMTNMDPVDTATYYCARSVVTGGYYYEGMDVWGQGTTVTVSS
VL: SYVLTQPPSVSVAPGQTARITCGGSNIGSESVHWYQQKPGQAPVLVVYEASDRPSGIPERFSGSNSGNTATLTISRVEAGDEADYYCQVWAGSSDHVVFGGGTKLTVLG
Consider B10, for which the EC50 was 5.35 nmol/L and the Emax was 620%.

B11: Ab0453 (antibody, IgG4, V domains shown)
VH: QVTLKESGPVLVKPTETLTLTCTVSGFSLSNARVGVSWIRQPPGKALEWLAHIFSNDEKSYSTSLKSRLTISKDTSKSQVVLTMTNMDPVDTATYYCARSVVTGGYYYEGMDVWGQGTTVTVSS
VL: SYVLTQPPSVSVAPGQTARITCGGSNIGSESVHWYQQKPGQAPVLVVYSESDRPSGIPERFSGSNSGNTATLTISRVEAGDEADYYCQVWEGESDHVVFGGGTKLTVLG
Consider B11, for which the EC50 was determined as 0.03 nmol/L and the maximum response (Emax) is 1400%.

B12: Ab0362 (antibody, IgG4, V domains shown)
VH: QVTLKESGPVLVKPTETLTLTCTVSGFSLNNARVGVSWIRQPPGKALEWLAHIFSNDEKSYSTSLKSRLTISKDTSKSQVVLTMTNMDPVDTATYYCARSVVTGGYYYEGMDVWGQGTTVTVSS
VL: SYVLTQPPSVSVAPGQTARITCGGSNIGSESVHWYQQKPGQAPVLVVYTESDRPSGIPERFSGSNSGNTATLTISRVEAGDEADYYCQVWAGSSDHVVFGGGTKLTVLG
Take B12: the EC50 came to 11.6 nmol/L and the Emax came out at 662%.

B13: Ab0458 (antibody, IgG4, V domains shown)
VH: QVTLKESGPVLVKPTETLTLTCTVSGFSLTNARVGVSWIRQPPGKALEWLAHIFSNDEKSYSTSLKSRLTISKDTSKSQVVLTMTNMDPVDTATYYCARSVVTGGYYYEGMDVWGQGTTVTVSS
VL: SYVLTQPPSVSVAPGQTARITCGGSNIGSESVHWYQQKPGQAPVLVVYSASDRPSGIPERFSGSNSGNTATLTISRVEAGDEADYYCQVWEGESDHVVFGGGTKLTVLG
As for B13, the EC50 came to 0.02 nmol/L and the maximal effect (Emax) was 1430%.

B14: Ab0457 (antibody, IgG4, V domains shown)
VH: QVTLKESGPVLVKPTETLTLTCTVSGFSLSNARVGVSWIRQPPGKALEWLAHIFSNDEKSYSTSLKSRLTISKDTSKSQVVLTMTNMDPVDTATYYCARSVVTGGYYYEGMDVWGQGTTVTVSS
VL: SYVLTQPPSVSVAPGQTARITCGGSNIGSESVHWYQQKPGQAPVLVVYSASDRPSGIPERFSGSNSGNTATLTISRVEAGDEADYYCQVWEGESDHVVFGGGTKLTVLG
For the molecule B14, the EC50 worked out at 0.02 nmol/L and the Emax worked out at 1520%.

B15: Ab0454 (antibody, IgG4, V domains shown)
VH: QVTLKESGPVLVKPTETLTLTCTVSGFSLTNARVGVSWIRQPPGKALEWLAHIFSNDEKSYSTSLKSRLTISKDTSKSQVVLTMTNMDPVDTATYYCARSVVTGGYYYEGMDVWGQGTTVTVSS
VL: SYVLTQPPSVSVAPGQTARITCGGSNIGSESVHWYQQKPGQAPVLVVYSESDRPSGIPERFSGSNSGNTATLTISRVEAGDEADYYCQVWEGESDHVVFGGGTKLTVLG
Take B15: the 50% effective concentration (EC50) turned out to be 0.03 nmol/L and the maximum response (Emax) was determined as 1390%.

B16: Ab0459 (antibody, IgG4, V domains shown)
VH: QVTLKESGPVLVKPTETLTLTCTVSGFSLSYARVGVSWIRQPPGKALEWLAHIFSNDEKSYSTSLKSRLTISKDTSKSQVVLTMTNMDPVDTATYYCARSVVTGGYYYEGMDVWGQGTTVTVSS
VL: SYVLTQPPSVSVAPGQTARITCGGSNIGSESVHWYQQKPGQAPVLVVYSASDRPSGIPERFSGSNSGNTATLTISRVEAGDEADYYCQVWEGESDHVVFGGGTKLTVLG
As to B16, the EC50 came to 0.04 nmol/L and the maximum response (Emax) came out at 1110%.

B17: Ab0456 (antibody, IgG4, V domains shown)
VH: QVTLKESGPVLVKPTETLTLTCTVSGFSLTYARVGVSWIRQPPGKALEWLAHIFSNDEKSYSTSLKSRLTISKDTSKSQVVLTMTNMDPVDTATYYCARSVVTGGYYYEGMDVWGQGTTVTVSS
VL: SYVLTQPPSVSVAPGQTARITCGGSNIGSESVHWYQQKPGQAPVLVVYSESDRPSGIPERFSGSNSGNTATLTISRVEAGDEADYYCQVWEGESDHVVFGGGTKLTVLG
With B17, the EC50 came out at 0.07 nmol/L and the Emax came out at 1080%.

B18: Ab0455 (antibody, IgG4, V domains shown)
VH: QVTLKESGPVLVKPTETLTLTCTVSGFSLSYARVGVSWIRQPPGKALEWLAHIFSNDEKSYSTSLKSRLTISKDTSKSQVVLTMTNMDPVDTATYYCARSVVTGGYYYEGMDVWGQGTTVTVSS
VL: SYVLTQPPSVSVAPGQTARITCGGSNIGSESVHWYQQKPGQAPVLVVYSESDRPSGIPERFSGSNSGNTATLTISRVEAGDEADYYCQVWEGESDHVVFGGGTKLTVLG
For the molecule B18, the concentration giving a half-maximal response (EC50) was 0.07 nmol/L and the maximum response (Emax) is 1020%.

B19: Ab0424 (antibody, IgG4, V domains shown)
VH: QVTLKESGPVLVKPTETLTLTCTVSGFSLNNARVGVSWIRQPPGKALEWLAHIFSNDEKSYSTSLKSRLTISKDTSKSQVVLTMTNMDPVDTATYYCARSVVTGGYYYEGMDVWGQGTTVTVSS
VL: SYVLTQPPSVSVAPGQTARITCGGSNIGSESVHWYQQKPGQAPVLVVYSSSDRPSGIPERFSGSNSGNTATLTISRVEAGDEADYYCQVWHGASDHVVFGGGTKLTVLG
On to B19, for which the EC50 amounted to 0.07 nmol/L and the Emax amounted to 1390%.

B20: Ab0423 (antibody, IgG4, V domains shown)
VH: QVTLKESGPVLVKPTETLTLTCTVSGFSLNNARVGVSWIRQPPGKALEWLAHIFSNDEKSYSTSLKSRLTISKDTSKSQVVLTMTNMDPVDTATYYCARSVVTGGYYYEGMDVWGQGTTVTVSS
VL: SYVLTQPPSVSVAPGQTARITCGGSNIGSESVHWYQQKPGQAPVLVVYSSSDRPSGIPERFSGSNSGNTATLTISRVEAGDEADYYCQVWEGASDHVVFGGGTKLTVLG
As for B20, the concentration giving a half-maximal response (EC50) amounted to 0.05 nmol/L and the maximal response (Emax) worked out at 1510%.
